Source: patent publication US20100159529, “DRY COMPOSITION OF REACTION COMPOUNDS WITH STABILIZED POLMERASE” (published 2010)

Legend:
[1] = target: T1, Taq DNA polymerase (UniProt P19821 P19821:1-832); assay: cell_free PCR activity after drying, other; indirect functional evidence: aptamer (0.65 pmol/U Taq) preserves qPCR activity after drying with primers/probes and 1 week at 37 C; Wsebi casein Cp 24.0 vs no; conditions: tags: glycerol free; Roche AptaTaq when complexed with aptamer
Protocol: The PCR performance of the polymerase after storage and re-solubilization was analyzed with and without detection mix (with or without primers and probes) using two different parameters. The liquid mixtures were dried 16 hours at 200 mbar and stored for 1 week at 37° C. prior to re-solubilization. As a control a liquid mixture without drying was used, too (called liquid reference in the following).
All mixtures were provided within wells of a 384 microtiter plate (Roche Diagnostic GmbH) and after the re-solubilization a PCR run was performed on the LightCycler®480 (Roche Diagnostic GmbH) using the following run protocol: [0123] 5 minutes 95° C. [0124] 10 seconds 95° C., 30 seconds 60° C., 1 second 72° C. (45×) [0125] 10 seconds 40° C.

[2] = target: T1, Taq DNA polymerase; assay: indirect functional evidence: 0.5 uM aptamer with 0.8 U/ul Taq preserves qPCR activity after drying with primers/probes and 1 week at 37 C; Wsebi Cp 24.8 vs liquid reference 24.7; 60 mM Tris pH 8.3, 60 mM KCl, 6.4 mM MgCl2; binding not measured directly; conditions: tags: glycerol free; Roche AptaTaq when complexed with aptamer
Protocol: The PCR performance of the polymerase with both aptamers were analyzed with detection mix (with primers and probes) after storage and re-solubilization using two different parameters. The liquid mixtures were dried 16 hours at 200 mbar and stored for 1 week at 37° C. prior to re-solubilization. As a control a liquid mixture without drying was used, too (called liquid reference in the following).

T1 sequence (P19821 whole entry, one chain of several): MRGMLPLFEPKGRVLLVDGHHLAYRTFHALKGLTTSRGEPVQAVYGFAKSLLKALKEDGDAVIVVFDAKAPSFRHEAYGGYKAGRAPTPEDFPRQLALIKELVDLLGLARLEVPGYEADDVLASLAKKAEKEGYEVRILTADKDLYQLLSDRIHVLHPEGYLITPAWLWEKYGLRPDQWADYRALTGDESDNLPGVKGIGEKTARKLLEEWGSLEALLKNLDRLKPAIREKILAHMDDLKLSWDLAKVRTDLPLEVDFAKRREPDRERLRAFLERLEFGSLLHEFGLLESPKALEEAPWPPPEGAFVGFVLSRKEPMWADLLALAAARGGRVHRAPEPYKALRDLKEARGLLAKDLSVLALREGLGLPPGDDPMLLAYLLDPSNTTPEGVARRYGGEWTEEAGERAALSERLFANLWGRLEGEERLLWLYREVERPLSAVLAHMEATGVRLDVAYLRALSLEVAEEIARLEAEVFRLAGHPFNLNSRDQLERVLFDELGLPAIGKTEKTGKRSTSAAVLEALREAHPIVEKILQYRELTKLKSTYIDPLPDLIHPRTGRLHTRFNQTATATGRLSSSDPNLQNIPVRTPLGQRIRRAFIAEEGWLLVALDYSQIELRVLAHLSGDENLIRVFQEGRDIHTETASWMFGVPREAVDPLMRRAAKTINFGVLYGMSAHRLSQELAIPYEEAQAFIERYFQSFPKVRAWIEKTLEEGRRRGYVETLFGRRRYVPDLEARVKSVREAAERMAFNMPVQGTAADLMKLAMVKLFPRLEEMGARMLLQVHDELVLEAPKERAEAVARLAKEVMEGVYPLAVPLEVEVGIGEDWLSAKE

Row | Binder | binding result [1] | binding result [2]
1 | CGATCATCTCAGAACATTCTTAGCGTTTTGTTCTTGTGTATGATCG (ssDNA) [NTQ12-46A] | binds | –
2 | GATCATCTCAGAACATTCTTAGCGTTTTGTTCTTGTGTATGA (ssDNA) [21-42-P (also printed 21-41-P)] | – | binds
